Earlier results, collected in patent US20060188964A1, “Processing for producing and crystallizing G-protein coupled receptors” (priority 2004, published 2006).

Test system: insulin action in the liver
Conditions: mice; insulin clamp; recombinant protein from HEK-293T cells

B1: resistin: mouse resistin, a highly disulfide-linked hormone naturally secreted from adipocytes; recombinant, hexameric (protein, UniProt Q99P87 21-114, looked up)
Resistin: SSMPLCPIDEAIDKKIKQDFNSLFPNAIKNIGLNCWTVSSRGKLASCPEGTAVLSCSCGSACGSWDIREEKVCHCQCARIDWTAARCCKLQVAS
effect on insulin action: potent antagonist of insulin action in the liver
